Experimental data taken from PMC12442443, “Identifying interactions between TDP‐43's N‐terminal and RNA‐binding domains” (Protein Science : A Publication of the Protein Society, 2024).

Tests used:
[1] = target: TDP-43 102-260 (RRM1-RRM2) (Homo sapiens, UniProt Q13148); assay: MST; apparent Kd; NMR: 40 mM HEPES pH 6.5, 300 mM NaCl, 4 mM DTT, 25 C, 25 uM protein; EMSA: same buffer, 25 C incubation, 6.25% PAGE 0.5x TBE at 4 C; MST and HTRF buffers not in material; conditions: protein: recombinant; tags: His (MST: NT-647 labelled HisTDP-43; tag cleaved when needed); single strand
Chain of TDP-43 102-260 (RRM1-RRM2) (Q13148 102-260): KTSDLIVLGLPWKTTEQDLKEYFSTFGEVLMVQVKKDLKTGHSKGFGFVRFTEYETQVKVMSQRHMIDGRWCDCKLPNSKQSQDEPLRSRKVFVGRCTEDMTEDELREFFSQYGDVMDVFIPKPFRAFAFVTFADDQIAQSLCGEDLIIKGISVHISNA

[2] = target: TDP-43 1-260 (NTD-RRM1-RRM2) (Homo sapiens, UniProt Q13148); assay: as above; conditions: protein: recombinant; tags: His (MST: NT-647 labelled HisTDP-43; tag cleaved when needed); single strand
Chain of TDP-43 1-260 (NTD-RRM1-RRM2) (Q13148 1-260): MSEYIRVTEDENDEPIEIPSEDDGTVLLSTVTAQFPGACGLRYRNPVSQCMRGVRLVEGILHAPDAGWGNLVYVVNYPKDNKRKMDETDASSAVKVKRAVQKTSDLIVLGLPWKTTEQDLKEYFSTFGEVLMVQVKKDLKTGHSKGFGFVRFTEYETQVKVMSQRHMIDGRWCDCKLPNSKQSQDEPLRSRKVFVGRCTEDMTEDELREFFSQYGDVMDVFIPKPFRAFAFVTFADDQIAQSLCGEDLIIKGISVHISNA

TDP-43 1-102 (NTD) = TDP-43 1-102 (NTD) (Homo sapiens, UniProt Q13148); assay: HTRF; ligand (UG)6 per legend; Methods heading names biotin (UG)4; NMR: 40 mM HEPES pH 6.5, 300 mM NaCl, 4 mM DTT, 25 C, 25 uM protein; EMSA: same buffer, 25 C incubation, 6.25% PAGE 0.5x TBE at 4 C; MST and HTRF buffers not in material; conditions: protein: recombinant; tags: His; single strand
Chain of TDP-43 1-102 (NTD) (Q13148 1-102): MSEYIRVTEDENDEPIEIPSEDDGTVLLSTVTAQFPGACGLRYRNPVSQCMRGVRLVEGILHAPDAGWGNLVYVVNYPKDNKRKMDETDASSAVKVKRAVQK

Binder | Kd [1] | Kd [2] | binding result (TDP-43 1-102 (NTD))
UGUGUGUGUGUG (ssRNA) [(UG)6] | 0.0398 µM | 0.0284 µM | –
UGUGUGUG (ssRNA) [(UG)4] | – | 0.246 µM | –
UGUGUGUGUGUG (ssRNA) [(UG)6 HTRF ligand] | – | – | no binding
